The source of these data is publication PMC11213338.

In test [1] the target is γb protein of BSMV, expressed by the virus. In words: immunogold labeling with γb antibody, TEM. As to conditions: virions purified from infected N. benthamiana leaves at 5 dpi; n = 13; parent: est. 48; read off a plot.
A further test concerns the target GST-γb. In words: GST pull-down. As to conditions: scale: relative anti-His band intensity.
In the next test the target is CP-His (UniProt P04866). In words: GST pull-down. The settings on record: scale: relative anti-His band intensity.
For test [2], the target named is BSMV virions (barley stripe mosaic virus (ND18 strain)). In words: immunogold labelling of purified virions (TEM); virions purified from infected leaves, adsorbed onto nickel grids, rabbit antiserum against the CRP 1:100 in BL buffer 2 h at room temperature, goat anti-rabbit 10 nm gold, TEM at 80 kV; also after 0.02 mM EDTA at 4°C for 12 h (fewer gold particles).
A further test concerns the target BSMV virions. In words: immunogold labeling with γb antibody, TEM. As to conditions: virions purified from infected N. benthamiana leaves at 5 dpi; n = 13; parent: est. 48; read off a plot.
The target of test [3] is GST-γb (barley stripe mosaic virus (ND18 strain)). In words: pull-down; GST pull-down: purified GST-tag protein with His-tag protein in 50 mM Tris-HCl pH 6.8, 500 mM NaCl, 1.5% glycerol, 0.6% Triton-X 100, 0.1% Tween 20, 3 h at 4°C; with or without 10 μg RNaseA, Zn^2+ 2-200 μM, 20 μM other divalent cations, or EDTA (200 μM in Fig 4D and 4E); blots with anti-GST or anti-His.

In test [4] the target is γb-GFP-His (barley stripe mosaic virus (ND18 strain)). In words: MST; γb protein with 5 μM Zn^2+ in the buffer held constant, CP protein added as ligand; Monolith NT.115.
Test [5] has the same target. In words: MST; γb-GFP-His held constant (10 μM), CP-His titrated from 20 μM; PBS with 0.1% Tween 20, 25°C, 20% LED-power, 40% MST-power, Monolith NT.115; no Zn^2+ added.
Test [6] has the same target. The description is as above. The source holds these as a separate data set.

For the molecule BSMV virions H13A, the response in test [1] was determined as 3%. Consider CP-His (from UniProt P04866) H13A, for which the response with GST-γb (EDTA (200 μM), parent: 0.05) stood at 0.04; with GST-γb (no EDTA, parent: 1.00) it was 0.11.

Regarding GST-γb H85A, the response in the test with CP-His (EDTA (200 μM), parent: 0.20) stood at 0.23; in the test with CP-His (no EDTA, parent: 1.00) it was 0.21. In the case of “γb protein of BSMV, expressed by the virus (natural protein)”, the percent of virions labelled with gold particles (γb antibody) in [2] came out at 50.9%. For “γb protein of BSMV, expressed by the virus H85A”, the response with BSMV virions was determined as 8%.

B1: CP-His (natural protein)
chain: MPNVSLTAKGGGHYIEDQWDTQVVEAGVFDDWWVHVEAWNKFLDNLRGINFSVASSRSQVAEYLAALDRDLPADVDRRFAGARGQIGSPNYLPAPKFFRLDKRTIAELTRLSRLTDQPHNNRDIELNRAKRATTNPSPPAQAPSENLTLRDVQPLKDSALHYQYVLIDLQSARLPVYTRKTFERELALEWIIPDAEEA
As for B1, in [3], the fold reduction of the pull-down with 200 μM EDTA was determined as 5 fold. Further, the dissociation constant (Kd) is 150 nM in test [4], 630 nM in test [5] and 460 nM in test [6].
